Laboratory results published in patent US20150344570A1 (published 2015).

T1: FcγRIIb extracellular domain with C-terminal His tag (human, UniProt P31994 43-217)
T1 construct: extracellular domain; soluble analyte in Biacore; also called FcgRIIb; not shown: His tag at the C terminus
T1 sequence (looked up): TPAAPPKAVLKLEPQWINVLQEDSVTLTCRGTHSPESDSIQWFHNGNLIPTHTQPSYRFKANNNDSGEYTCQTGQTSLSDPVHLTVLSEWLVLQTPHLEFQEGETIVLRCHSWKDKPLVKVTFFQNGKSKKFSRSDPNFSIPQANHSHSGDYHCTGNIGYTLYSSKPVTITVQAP

B1: GpH7-B3 variant S298_11K/GpL16-k0 (antibody, human IgG1, kappa)
heavy: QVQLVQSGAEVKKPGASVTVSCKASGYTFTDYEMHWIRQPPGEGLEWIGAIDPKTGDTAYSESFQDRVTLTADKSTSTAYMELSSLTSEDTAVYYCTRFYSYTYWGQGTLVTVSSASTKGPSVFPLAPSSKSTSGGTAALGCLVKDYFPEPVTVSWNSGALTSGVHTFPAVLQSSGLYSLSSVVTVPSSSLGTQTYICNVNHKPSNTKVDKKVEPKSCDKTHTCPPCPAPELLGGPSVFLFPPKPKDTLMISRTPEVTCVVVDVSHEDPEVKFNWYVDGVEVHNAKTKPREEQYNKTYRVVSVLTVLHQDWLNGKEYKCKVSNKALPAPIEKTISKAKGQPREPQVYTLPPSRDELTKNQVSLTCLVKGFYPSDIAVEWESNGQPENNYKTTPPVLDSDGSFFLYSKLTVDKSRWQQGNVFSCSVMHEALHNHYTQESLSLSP
light: DIVMTQSPLSLPVTPGEPASISCQASESLVHSNRNTYLHWYLQKPGQSPQLLIYKVSNRFSGVPDRFSGSGSGTDFTLKISRVEAEDVGVYYCSQNTHVPPTFGQGTKVEIERTVAAPSVFIFPPSDEQLKSGTASVVCLLNNFYPREAKVQWKVDNALQSGNSQESVTEQDSKDSTYSLSSTLTLSKADYEKHKVYACEVTHQGLSSPVTKSFNRGEC
notes: also called Ho Ab S298_11K
B2: GpH7-B3 variant Q295_04F/GpL16-k0 (antibody, human IgG1, kappa)
heavy: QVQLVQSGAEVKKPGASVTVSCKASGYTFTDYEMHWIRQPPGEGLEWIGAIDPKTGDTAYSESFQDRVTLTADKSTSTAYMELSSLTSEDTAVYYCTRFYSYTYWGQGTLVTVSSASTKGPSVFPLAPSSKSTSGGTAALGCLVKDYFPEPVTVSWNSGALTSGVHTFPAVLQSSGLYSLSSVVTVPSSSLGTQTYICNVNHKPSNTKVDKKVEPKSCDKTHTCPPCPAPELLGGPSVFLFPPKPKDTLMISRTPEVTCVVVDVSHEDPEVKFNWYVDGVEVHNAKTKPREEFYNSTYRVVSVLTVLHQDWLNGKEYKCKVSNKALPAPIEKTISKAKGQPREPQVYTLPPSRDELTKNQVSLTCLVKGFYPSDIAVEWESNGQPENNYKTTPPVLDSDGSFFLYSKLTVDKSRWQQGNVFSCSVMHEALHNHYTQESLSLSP
light: B1 light
notes: also called Ho Ab Q295_04F
B3: GpH7-B3 variant P271_07I/GpL16-k0 (antibody, human IgG1, kappa)
heavy: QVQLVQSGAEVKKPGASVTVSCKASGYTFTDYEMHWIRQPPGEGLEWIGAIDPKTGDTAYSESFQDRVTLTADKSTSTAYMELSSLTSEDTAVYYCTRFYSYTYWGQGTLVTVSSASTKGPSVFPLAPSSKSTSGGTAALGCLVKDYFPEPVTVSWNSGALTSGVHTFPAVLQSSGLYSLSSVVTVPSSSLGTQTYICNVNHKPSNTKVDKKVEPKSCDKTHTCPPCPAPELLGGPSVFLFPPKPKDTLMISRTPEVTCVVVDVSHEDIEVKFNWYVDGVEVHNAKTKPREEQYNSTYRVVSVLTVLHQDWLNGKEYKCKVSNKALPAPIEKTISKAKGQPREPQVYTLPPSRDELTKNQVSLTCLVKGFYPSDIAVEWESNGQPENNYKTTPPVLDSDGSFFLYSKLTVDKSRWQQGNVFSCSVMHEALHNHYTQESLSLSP
light: B1 light
notes: also called Ho Ab P271_07I
B4: GpH7-B3 variant Q295_13S/GpL16-k0 (antibody, human IgG1, kappa)
heavy: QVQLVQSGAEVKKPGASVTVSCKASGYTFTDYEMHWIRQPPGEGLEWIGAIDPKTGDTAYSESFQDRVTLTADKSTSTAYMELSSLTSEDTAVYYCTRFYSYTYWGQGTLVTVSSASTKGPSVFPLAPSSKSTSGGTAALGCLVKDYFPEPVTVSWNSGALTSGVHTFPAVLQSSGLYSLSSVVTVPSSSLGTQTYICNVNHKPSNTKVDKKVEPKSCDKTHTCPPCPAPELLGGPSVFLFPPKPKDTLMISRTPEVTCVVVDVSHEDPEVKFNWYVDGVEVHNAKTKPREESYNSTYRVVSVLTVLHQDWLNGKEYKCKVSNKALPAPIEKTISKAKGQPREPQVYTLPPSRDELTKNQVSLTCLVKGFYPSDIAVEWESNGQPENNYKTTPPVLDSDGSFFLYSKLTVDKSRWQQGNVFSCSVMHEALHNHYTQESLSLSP
light: B1 light
notes: also called Ho Ab Q295_13S
B5: GpH7-B3 variant Q295_08L/GpL16-k0 (antibody, human IgG1, kappa)
heavy: not shown
light: B1 light
notes: also called Ho Ab Q295_08L
B6: GpH7-B3 variant Q295_05P/GpL16-k0 (antibody, human IgG1, kappa)
heavy: not shown
light: B1 light
notes: also called Ho Ab Q295_05P
B7: GpH7-B3 variant P271_12R/GpL16-k0 (antibody, human IgG1, kappa)
heavy: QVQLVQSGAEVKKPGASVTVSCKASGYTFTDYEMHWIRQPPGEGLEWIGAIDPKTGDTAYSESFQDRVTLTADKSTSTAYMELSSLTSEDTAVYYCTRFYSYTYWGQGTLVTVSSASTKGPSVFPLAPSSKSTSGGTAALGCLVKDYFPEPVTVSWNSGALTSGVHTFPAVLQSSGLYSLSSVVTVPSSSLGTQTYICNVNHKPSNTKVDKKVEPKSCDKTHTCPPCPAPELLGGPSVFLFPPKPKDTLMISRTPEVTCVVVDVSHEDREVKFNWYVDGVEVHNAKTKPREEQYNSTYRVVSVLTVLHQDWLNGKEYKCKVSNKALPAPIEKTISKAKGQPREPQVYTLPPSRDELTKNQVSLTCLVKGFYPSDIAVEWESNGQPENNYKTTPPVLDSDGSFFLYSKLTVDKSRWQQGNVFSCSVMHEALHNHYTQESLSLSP
light: B1 light
notes: also called Ho Ab P271_12R
B8: GpH7-B3 variant Q295_14T/GpL16-k0 (antibody, human IgG1, kappa)
heavy: not shown
light: B1 light
notes: also called Ho Ab Q295_14T
B9: GpH7-B3 variant P271_20W/GpL16-k0 (antibody, human IgG1, kappa)
heavy: not shown
light: B1 light
notes: also called Ho Ab P271_20W
B10: GpH7-B3 variant P271_13S/GpL16-k0 (antibody, human IgG1, kappa)
heavy: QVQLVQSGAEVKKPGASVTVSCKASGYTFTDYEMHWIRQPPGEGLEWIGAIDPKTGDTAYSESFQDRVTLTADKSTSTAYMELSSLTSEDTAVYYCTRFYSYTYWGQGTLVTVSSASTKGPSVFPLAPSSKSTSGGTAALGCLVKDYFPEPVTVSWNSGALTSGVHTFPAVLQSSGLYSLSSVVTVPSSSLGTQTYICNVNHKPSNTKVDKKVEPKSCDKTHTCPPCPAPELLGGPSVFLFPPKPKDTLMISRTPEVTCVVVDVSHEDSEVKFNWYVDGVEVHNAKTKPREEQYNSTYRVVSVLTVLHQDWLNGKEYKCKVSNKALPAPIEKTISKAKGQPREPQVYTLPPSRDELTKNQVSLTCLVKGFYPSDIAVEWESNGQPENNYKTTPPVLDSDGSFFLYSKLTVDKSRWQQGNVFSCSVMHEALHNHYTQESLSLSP
light: B1 light
notes: also called Ho Ab P271_13S
B11: GpH7-B3 variant Q295_07I/GpL16-k0 (antibody, human IgG1, kappa)
heavy: not shown
light: B1 light
notes: also called Ho Ab Q295_07I
B12: GpH7-B3 variant P271_11K/GpL16-k0 (antibody, human IgG1, kappa)
heavy: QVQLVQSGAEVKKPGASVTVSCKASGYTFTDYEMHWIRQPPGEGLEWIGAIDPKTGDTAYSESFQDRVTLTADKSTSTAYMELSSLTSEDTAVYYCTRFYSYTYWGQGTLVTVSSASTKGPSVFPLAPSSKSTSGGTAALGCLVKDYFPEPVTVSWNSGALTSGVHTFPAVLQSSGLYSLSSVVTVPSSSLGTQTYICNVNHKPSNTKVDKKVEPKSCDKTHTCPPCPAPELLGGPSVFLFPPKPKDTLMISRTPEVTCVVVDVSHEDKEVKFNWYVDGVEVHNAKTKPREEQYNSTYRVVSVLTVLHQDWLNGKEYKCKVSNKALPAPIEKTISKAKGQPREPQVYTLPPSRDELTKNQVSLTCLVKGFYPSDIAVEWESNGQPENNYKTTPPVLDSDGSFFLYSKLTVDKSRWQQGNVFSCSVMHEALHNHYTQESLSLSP
light: B1 light
notes: also called Ho Ab P271_11K
B13: GpH7-B3 variant Q295_18N/GpL16-k0 (antibody, human IgG1, kappa)
heavy: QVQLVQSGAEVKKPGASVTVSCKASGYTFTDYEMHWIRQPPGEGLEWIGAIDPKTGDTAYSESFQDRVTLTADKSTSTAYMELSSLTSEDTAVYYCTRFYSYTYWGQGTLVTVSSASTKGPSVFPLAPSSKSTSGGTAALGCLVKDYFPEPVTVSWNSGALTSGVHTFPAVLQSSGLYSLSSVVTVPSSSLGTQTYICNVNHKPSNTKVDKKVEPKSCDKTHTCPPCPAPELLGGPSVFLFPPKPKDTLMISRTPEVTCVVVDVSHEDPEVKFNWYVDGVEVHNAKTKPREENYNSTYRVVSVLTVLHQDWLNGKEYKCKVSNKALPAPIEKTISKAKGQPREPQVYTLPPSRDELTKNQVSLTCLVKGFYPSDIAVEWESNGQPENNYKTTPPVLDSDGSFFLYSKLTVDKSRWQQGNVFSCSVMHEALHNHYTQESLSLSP
light: B1 light
notes: also called Ho Ab Q295_18N
B14: GpH7-B3 variant Q295_03V/GpL16-k0 (antibody, human IgG1, kappa)
heavy: not shown
light: B1 light
notes: also called Ho Ab Q295_03V
B15: GpH7-B3 variant P271_04F/GpL16-k0 (antibody, human IgG1, kappa)
heavy: not shown
light: B1 light
notes: also called Ho Ab P271_04F
B16: GpH7-B3 variant Q295_02A/GpL16-k0 (antibody, human IgG1, kappa)
heavy: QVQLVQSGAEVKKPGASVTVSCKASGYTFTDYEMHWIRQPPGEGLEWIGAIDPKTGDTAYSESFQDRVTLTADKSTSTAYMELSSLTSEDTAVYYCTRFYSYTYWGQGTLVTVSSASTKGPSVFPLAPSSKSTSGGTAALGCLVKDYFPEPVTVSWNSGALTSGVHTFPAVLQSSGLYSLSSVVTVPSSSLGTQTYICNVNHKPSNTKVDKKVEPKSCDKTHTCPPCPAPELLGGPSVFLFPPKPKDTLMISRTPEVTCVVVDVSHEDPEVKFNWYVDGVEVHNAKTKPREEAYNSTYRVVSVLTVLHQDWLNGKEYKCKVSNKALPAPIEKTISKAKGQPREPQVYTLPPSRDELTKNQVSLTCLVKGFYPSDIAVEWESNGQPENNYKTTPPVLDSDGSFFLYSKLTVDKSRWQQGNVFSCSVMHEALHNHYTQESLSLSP
light: B1 light
notes: also called Ho Ab Q295_02A
B17: GpH7-B3 variant P271_06M/GpL16-k0 (antibody, human IgG1, kappa)
heavy: not shown
light: B1 light
notes: also called Ho Ab P271_06M
B18: GpH7-A5/GpH7-B3 variant I336_02A/GpL16-k0 (antibody, human IgG1, kappa)
heavy 1: not shown
heavy 2: not shown
light: B1 light
notes: change in the GpH7-B3 H chain only; also called He Ab
B19: GpH7-A5/GpH7-B3 variant P329_01G/GpL16-k0 (antibody, human IgG1, kappa)
heavy 1: not shown
heavy 2: not shown
light: B1 light
notes: as for B18
B20: GpH7-A5/GpH7-B3 variant S324_15Y/GpL16-k0 (antibody, human IgG1, kappa)
heavy 1: not shown
heavy 2: not shown
light: B1 light
notes: as for B18
B21: GpH7-A5/GpH7-B3 variant S324_08L/GpL16-k0 (antibody, human IgG1, kappa)
heavy 1: not shown
heavy 2: not shown
light: B1 light
notes: as for B18
B22: GpH7-A5/GpH7-B3 variant T335_11K/GpL16-k0 (antibody, human IgG1, kappa)
heavy 1: not shown
heavy 2: not shown
light: B1 light
notes: as for B18
B23: GpH7-A5/GpH7-B3 variant S324_19Q/GpL16-k0 (antibody, human IgG1, kappa)
heavy 1: not shown
heavy 2: not shown
light: B1 light
notes: as for B18
B24: GpH7-A5/GpH7-B3 variant S324_20W/GpL16-k0 (antibody, human IgG1, kappa)
heavy 1: not shown
heavy 2: not shown
light: B1 light
notes: as for B18
B25: GpH7-A5/GpH7-B3 variant S324_16H/GpL16-k0 (antibody, human IgG1, kappa)
heavy 1: not shown
heavy 2: not shown
light: B1 light
notes: as for B18
B26: GpH7-A5/GpH7-B3 variant S324_12R/GpL16-k0 (antibody, human IgG1, kappa)
heavy 1: not shown
heavy 2: not shown
light: B1 light
notes: as for B18
B27: GpH7-A5/GpH7-B3 variant S324_09D/GpL16-k0 (antibody, human IgG1, kappa)
heavy 1: not shown
heavy 2: not shown
light: B1 light
notes: as for B18
B28: GpH7-A5/GpH7-B3 variant S324_18N/GpL16-k0 (antibody, human IgG1, kappa)
heavy 1: not shown
heavy 2: not shown
light: B1 light
notes: as for B18
B29: GpH7-A5/GpH7-B3 variant S324_10E/GpL16-k0 (antibody, human IgG1, kappa)
heavy 1: not shown
heavy 2: not shown
light: B1 light
notes: as for B18
B30: GpH7-A5/GpH7-B3 variant T335_12R/GpL16-k0 (antibody, human IgG1, kappa)
heavy 1: not shown
heavy 2: not shown
light: B1 light
notes: as for B18
B31: GpH7-A5/GpH7-B3 variant S324_11K/GpL16-k0 (antibody, human IgG1, kappa)
heavy 1: not shown
heavy 2: not shown
light: B1 light
notes: as for B18
B32: GpH7-A5/GpH7-B3 variant I336_03V/GpL16-k0 (antibody, human IgG1, kappa)
heavy 1: not shown
heavy 2: not shown
light: B1 light
notes: as for B18
B33: GpH7-A5/GpH7-B3 variant K334_09D/GpL16-k0 (antibody, human IgG1, kappa)
heavy 1: not shown
heavy 2: not shown
light: B1 light
notes: as for B18
B34: GpH7-A5/GpH7-B3 variant P329_02A/GpL16-k0 (antibody, human IgG1, kappa)
heavy 1: not shown
heavy 2: not shown
light: B1 light
notes: as for B18
B35: GpH7-A5/GpH7-B3 variant T335_01G/GpL16-k0 (antibody, human IgG1, kappa)
heavy 1: not shown
heavy 2: not shown
light: B1 light
notes: as for B18
B36: GpH7-A5/GpH7-B3 variant T335_05P/GpL16-k0 (antibody, human IgG1, kappa)
heavy 1: not shown
heavy 2: not shown
light: B1 light
notes: as for B18
B37: GpH7-A5/GpH7-B3 variant K334_01G/GpL16-k0 (antibody, human IgG1, kappa)
heavy 1: not shown
heavy 2: not shown
light: B1 light
notes: as for B18
B38: GpH7-A5/GpH7-B3 variant S324_14T/GpL16-k0 (antibody, human IgG1, kappa)
heavy 1: not shown
heavy 2: not shown
light: B1 light
notes: as for B18
B39: GpH7-A5/GpH7-B3 variant T335_06M/GpL16-k0 (antibody, human IgG1, kappa)
heavy 1: not shown
heavy 2: not shown
light: B1 light
notes: as for B18
B40: GpH7-A5/GpH7-B3 variant T335_02A/GpL16-k0 (antibody, human IgG1, kappa)
heavy 1: not shown
heavy 2: not shown
light: B1 light
notes: as for B18

These binders were tested against T2, FcγRIa (human, UniProt P12314 16-292) (assay: SPR (Biacore); Ho Ab vs HoCon Ab GpH7-B3/GpL16-k0).
T2 construct: extracellular domain; Soluble extracellular domain expressed in FreeStyle293 cells, used as analyte in Biacore; also called FcgRI; 1a; not shown: His tag attached to the C terminus
Experimental: Analysis of interaction between objective antibody and the FcγR was carried out using Biacore T100 (GE Healthcare). HBS-EP+ (GE Healthcare) was used as the running buffer, and the measurement temperature was set to 25° C. Chips produced by immobilizing the antigen peptide by the amine coupling method to a Series S Sencor Chip CM5 (GE Healthcare), or alternatively, chips produced by allowing preliminarily biotinylated antigen peptides to interact with and immobilize onto a Series S Sensor Chip SA (certified) (GE Healthcare) were used. Antibodies of interest were captured onto an antigen peptide-immobilized chip, and allowed to interact to each FcγR diluted with running buffer. To regenerate and repeatedly use the chip, the antibodies captured on the chip were washed off by reacting 10 mM glycine-HCl, pH 1.5.

T2 sequence (P12314 16-292): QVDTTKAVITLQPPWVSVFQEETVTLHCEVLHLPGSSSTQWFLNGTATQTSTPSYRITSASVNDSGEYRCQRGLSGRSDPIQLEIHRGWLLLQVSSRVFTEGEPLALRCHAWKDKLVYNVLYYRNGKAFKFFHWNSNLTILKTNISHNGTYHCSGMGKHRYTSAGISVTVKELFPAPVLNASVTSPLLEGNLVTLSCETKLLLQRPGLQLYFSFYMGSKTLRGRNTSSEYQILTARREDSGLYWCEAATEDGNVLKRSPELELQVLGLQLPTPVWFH

Ho/Con_1a	Binder
90.4 relative binding, control = 100	B1
100 relative binding, control = 100	B2
102 relative binding, control = 100	B3
101 relative binding, control = 100	B4
103 relative binding, control = 100	B5
101 relative binding, control = 100	B6
101 relative binding, control = 100	B7
102 relative binding, control = 100	B8
102 relative binding, control = 100	B9
101 relative binding, control = 100	B10
101 relative binding, control = 100	B11
101 relative binding, control = 100	B12
101 relative binding, control = 100	B13
102 relative binding, control = 100	B14
100 relative binding, control = 100	B15
104 relative binding, control = 100	B16
102 relative binding, control = 100	B17

Each binder was assayed against T1, FcγRIIb extracellular domain with … (assay: SPR, binding relative to GpH7-A5/GpH7-B3/GpL16-k0 = 100).

He/Con_2b	Binder
84.9 % of control	B18
41.7 % of control	B19
88.2 % of control	B20
89.6 % of control	B21
91 % of control	B22
66.8 % of control	B23
87.5 % of control	B24
83.5 % of control	B25
63.1 % of control	B26
85.8 % of control	B27
81.1 % of control	B28
77.4 % of control	B29
91.9 % of control	B30
68.6 % of control	B31
90.3 % of control	B32
94.8 % of control	B33
40.5 % of control	B34
96.7 % of control	B35
99.9 % of control	B36
92.5 % of control	B37
88.4 % of control	B38
99.4 % of control	B39
94 % of control	B40

Each binder was assayed against T3, FcγRIa extracellular domain with C-terminal His tag (human, UniProt P12314 16-292) in the same assay as above.
T3 construct: extracellular domain; soluble analyte in Biacore; also called FcgRI; not shown: His tag at the C terminus
T3 sequence (P12314 16-292): as above

He/Con_1a	Binder
106 % of control	B18
101 % of control	B19
114 % of control	B20
103 % of control	B21
111 % of control	B22
112 % of control	B23
114 % of control	B24
113 % of control	B25
102 % of control	B26
104 % of control	B27
116 % of control	B28
105 % of control	B29
113 % of control	B30
102 % of control	B31
105 % of control	B32
106 % of control	B33
102 % of control	B34
104 % of control	B35
106 % of control	B36
104 % of control	B37
121 % of control	B38
107 % of control	B39
103 % of control	B40
